{
  "source": "paper PMC3789764",
  "binders": {"B1": {"name": "Cy3 19-bp duplex (dsDNA)", "DNA 1": "GAAAGCTATGGGCGCGGTT", "DNA 2": "AACCGCGCCCATAGCTTTC"}},
  "molecular_target": "Ku70 (in Ku70/Ku80ΔC);Ku80ΔC (in Ku70/Ku80ΔC) (human;human, UniProt P12956;P13010 1-609;1-590, |)",
  "sequence (P12956 whole entry, stated change not applied, chain 1 of 2)": "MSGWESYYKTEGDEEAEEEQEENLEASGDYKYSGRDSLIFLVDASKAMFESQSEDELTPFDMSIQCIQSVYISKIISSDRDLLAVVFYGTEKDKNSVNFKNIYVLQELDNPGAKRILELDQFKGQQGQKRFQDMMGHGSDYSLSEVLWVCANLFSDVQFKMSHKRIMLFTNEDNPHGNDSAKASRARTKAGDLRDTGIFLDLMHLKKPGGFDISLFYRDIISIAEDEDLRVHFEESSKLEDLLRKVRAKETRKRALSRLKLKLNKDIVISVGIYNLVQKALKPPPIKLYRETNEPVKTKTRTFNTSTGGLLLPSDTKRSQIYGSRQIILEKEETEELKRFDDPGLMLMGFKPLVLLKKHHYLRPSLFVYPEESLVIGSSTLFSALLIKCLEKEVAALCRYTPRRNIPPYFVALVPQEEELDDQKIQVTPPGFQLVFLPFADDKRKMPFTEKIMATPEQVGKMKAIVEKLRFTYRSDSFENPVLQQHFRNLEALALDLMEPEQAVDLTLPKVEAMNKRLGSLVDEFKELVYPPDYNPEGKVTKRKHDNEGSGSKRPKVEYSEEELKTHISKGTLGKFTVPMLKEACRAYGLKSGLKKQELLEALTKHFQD",
  "sequence (P13010 1-590, stated change not applied, chain 2 of 2)": "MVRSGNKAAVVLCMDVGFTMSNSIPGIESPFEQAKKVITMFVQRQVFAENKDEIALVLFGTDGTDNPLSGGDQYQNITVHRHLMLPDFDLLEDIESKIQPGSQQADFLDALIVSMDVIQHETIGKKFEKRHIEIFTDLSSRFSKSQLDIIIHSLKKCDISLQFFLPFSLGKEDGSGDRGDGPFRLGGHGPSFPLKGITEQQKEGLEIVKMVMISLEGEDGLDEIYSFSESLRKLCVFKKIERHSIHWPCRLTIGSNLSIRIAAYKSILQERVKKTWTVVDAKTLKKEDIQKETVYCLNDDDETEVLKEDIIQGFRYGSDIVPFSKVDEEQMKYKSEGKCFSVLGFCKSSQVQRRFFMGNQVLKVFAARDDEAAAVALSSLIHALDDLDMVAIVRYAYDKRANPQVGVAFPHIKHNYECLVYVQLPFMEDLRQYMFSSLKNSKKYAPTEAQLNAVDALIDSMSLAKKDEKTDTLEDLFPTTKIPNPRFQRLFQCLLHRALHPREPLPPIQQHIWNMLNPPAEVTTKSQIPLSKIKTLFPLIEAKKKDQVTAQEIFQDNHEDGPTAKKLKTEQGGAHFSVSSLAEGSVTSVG",
  "test": "EMSA",
  "conditions": "protein: recombinant;recombinant; tags: N-terminal Strep tag II;; copies: 1;1",
  "data": [
    {"binder": "B1", "values": [
      {"measurement": "binding result", "result": "binds"}
    ]}
  ]
}
